This is an account of results in patent US20150366985A1.

The target in the assay is protein A found on S. aureus (Staphylococcus aureus) (UniProt P02976). Briefly: FACS, Alexa-488 labeled antibodies at 0.08-50 ug/mL on MRSA isolated from infected mouse kidneys; low level binding attributed by the filing to protein A. A general note: Flow cytometry measures light scatter and fluorescence of single cells or particles in a stream.
protein A found on S. aureus (Staphylococcus aureus), sequence (P02976 37-485): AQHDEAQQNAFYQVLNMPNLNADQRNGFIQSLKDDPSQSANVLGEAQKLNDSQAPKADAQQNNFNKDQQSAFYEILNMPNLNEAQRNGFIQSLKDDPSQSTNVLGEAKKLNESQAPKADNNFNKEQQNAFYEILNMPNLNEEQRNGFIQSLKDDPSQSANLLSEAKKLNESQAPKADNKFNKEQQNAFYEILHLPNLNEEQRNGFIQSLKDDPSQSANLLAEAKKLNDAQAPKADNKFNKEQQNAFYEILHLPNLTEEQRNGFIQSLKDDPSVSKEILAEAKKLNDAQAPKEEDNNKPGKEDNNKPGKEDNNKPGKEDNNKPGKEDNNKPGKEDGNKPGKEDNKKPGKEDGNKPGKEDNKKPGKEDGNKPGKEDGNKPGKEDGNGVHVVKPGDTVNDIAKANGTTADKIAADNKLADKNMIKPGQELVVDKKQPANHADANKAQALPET

“gD antibody (negative control human IgG1 that does not recognize S. aureus)” yielded a fold lower binding than the S4497 antibody (fold lower than S4497 antibody) of 30.
